Experiments:
[1] = target: HGF protein (hepatocyte growth factor) (UniProt P14210); assay: ELISA, HGF coated on plate, YYB-101 at 1 ug/mL as positive control
[2] = target: HGF protein (hepatocyte growth factor) (UniProt P14210); assay: ELISA, HGF coated on plate, 24 h culture supernatant of YYB-103-1XX+YYB-101 scFv CAR-T cells

Sequence of UniProt P14210 (P14210 32-728 limits assumed): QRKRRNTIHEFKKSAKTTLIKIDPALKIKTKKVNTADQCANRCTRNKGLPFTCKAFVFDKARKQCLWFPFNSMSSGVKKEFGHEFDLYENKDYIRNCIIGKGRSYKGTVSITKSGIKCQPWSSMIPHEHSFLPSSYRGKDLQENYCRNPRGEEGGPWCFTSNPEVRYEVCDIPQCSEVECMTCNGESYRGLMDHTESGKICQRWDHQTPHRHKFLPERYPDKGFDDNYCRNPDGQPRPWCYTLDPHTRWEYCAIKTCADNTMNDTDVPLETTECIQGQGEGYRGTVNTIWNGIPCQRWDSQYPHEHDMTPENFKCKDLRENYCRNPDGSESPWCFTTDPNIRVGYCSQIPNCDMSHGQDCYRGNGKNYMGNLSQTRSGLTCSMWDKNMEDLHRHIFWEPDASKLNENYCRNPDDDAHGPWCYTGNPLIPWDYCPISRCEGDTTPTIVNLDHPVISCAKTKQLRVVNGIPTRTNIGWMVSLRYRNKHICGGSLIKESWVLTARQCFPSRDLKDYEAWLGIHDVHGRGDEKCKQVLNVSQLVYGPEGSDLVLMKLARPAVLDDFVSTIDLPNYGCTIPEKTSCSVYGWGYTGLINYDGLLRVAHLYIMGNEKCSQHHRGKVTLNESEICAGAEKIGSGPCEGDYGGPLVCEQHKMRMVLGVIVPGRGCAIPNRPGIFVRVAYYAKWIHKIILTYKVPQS

B1: YYB-101 (HGF neutralising antibody) (antibody, human IgG4 S228P, kappa, V domains shown)
VH: EVQLVESGGGLVQPGGSLRLSCAASGFTFSTYYMSWVRQAPGKGLEWVAYIGTSSGTTYYADSVKGRFTISRDGSKNTLYLQMNSLRAEDTAVYYCARGLGRINLWGQGTLVTVSS
VL: DIQMTQSPSSLSASVGDRVTITCRASQGISNILAWYQQKPGKAPKLLIYGASNLESGVPSRFSGSGSGTDFTLTISSLQPEDFATYYCQSGYYSRGATFGQGTKVEIKR
Q: For B1, which OD, 450nm (HGF 결합) [1] is on record?
A: 3.02 OD 450 nm

B2: YYB-101 Single Chain Variable Fragment (scFv) (scFv)
scFv: DIQMTQSPSSLSASVGDRVTITCRASQGISNILAWYQQKPGKAPKLLIYGASNLESGVPSRFSGSGSGTDFTLTISSLQPEDFATYYCQSGYYSRGATFGQGTKVEIKGGGGSGGGGSGGGGSEVQLVESGGGLVQPGGSLRLSCAASGFTFSTYYMSWVRQAPGKGLEWVAYIGTSSGTTYYADSVKGRFTISRDGSKNTLYLQMNSLRAEDTAVYYCARGLGRINLWGQGTLVTVSS
Q: B2 was tested. Which OD, 450nm (HGF 결합) [2] did it give?
A: 2.63 OD 450 nm
